System: Escherichia coli TOP10
Assay: shrunken log2 fold change of peptide-encoding DNA abundance (4.5 h post-induction vs induction); higher = less antimicrobial activity (less host growth inhibition)
Details: time post-induction: 4.5 h; library: site-saturation at positions 5, 18, 19, 20
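Further: peptides expressed intracellularly from a pBAD plasmid library in pooled LB shake-flask culture, induced with 0.3% L-arabinose, DNA abundance read by NGS, three biological replicates, DESeq2 with apeglm shrinkage.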

RRIRGRPPRLPRPRPRPGFVPRP
shrunken log2 fold change: 0.768

RRIRGRPPRLPRPRPRPGGCPRP
shrunken log2 fold change: 1.19

RRIRGRPPRLPRPRPRPGGMPRP
shrunken log2 fold change: 0.662

RRIRGRPPRLPRPRPRPGHDPRP
shrunken log2 fold change: 0.0495

RRIRGRPPRLPRPRPRPGKIPRP
shrunken log2 fold change: 1.93

RRIRGRPPRLPRPRPRPGKMPRP
shrunken log2 fold change: 0.224

RRIRGRPPRLPRPRPRPGMCPRP
shrunken log2 fold change: 0.489

RRIRGRPPRLPRPRPRPGMNPRP
shrunken log2 fold change: 0.105

RRIRGRPPRLPRPRPRPGNCPRP
shrunken log2 fold change: 0.131

RRIRGRPPRLPRPRPRPGNDPRP
shrunken log2 fold change: 0.381

RRIRGRPPRLPRPRPRPGPTPRP
shrunken log2 fold change: 1.51

RRIRGRPPRLPRPRPRPGRIPRP
shrunken log2 fold change: 0.153

RRIRGRPPRLPRPRPRPGRPPRP
shrunken log2 fold change: 0.737

RRIRGRPPRLPRPRPRPGVAPRP
shrunken log2 fold change: 1.53

RRIRGRPPRLPRPRPRPGVEPRP
shrunken log2 fold change: 1.46

RRIRGRPPRLPRPRPRPGWMPRP
shrunken log2 fold change: 0.315

RRIRGRPPRLPRPRPRPGWNPRP
shrunken log2 fold change: 0.486

RRIRGRPPRLPRPRPRPGYQPRP
shrunken log2 fold change: -0.0619

RRIRGRPPRLPRPRPRPHAFPRP
shrunken log2 fold change: 0.372

RRIRGRPPRLPRPRPRPHCSPRP
shrunken log2 fold change: 0.144

RRIRGRPPRLPRPRPRPHDCPRP
shrunken log2 fold change: 0.0253

RRIRGRPPRLPRPRPRPHDVPRP
shrunken log2 fold change: 0.118

RRIRGRPPRLPRPRPRPHEFPRP
shrunken log2 fold change: 0.144

RRIRGRPPRLPRPRPRPHEGPRP
shrunken log2 fold change: 0.403

RRIRGRPPRLPRPRPRPHEKPRP
shrunken log2 fold change: 0.0144

RRIRGRPPRLPRPRPRPHETPRP
shrunken log2 fold change: -0.022

RRIRGRPPRLPRPRPRPHFQPRP
shrunken log2 fold change: -0.099

RRIRGRPPRLPRPRPRPHGHPRP
shrunken log2 fold change: 0.382

RRIRGRPPRLPRPRPRPHGNPRP
shrunken log2 fold change: 0.365

RRIRGRPPRLPRPRPRPHINPRP
shrunken log2 fold change: 0.214

RRIRGRPPRLPRPRPRPHITPRP
shrunken log2 fold change: -0.0465

RRIRGRPPRLPRPRPRPHLFPRP
shrunken log2 fold change: 0.0842

RRIRGRPPRLPRPRPRPHLNPRP
shrunken log2 fold change: 0.0325

RRIRGRPPRLPRPRPRPHMWPRP
shrunken log2 fold change: -0.0527

RRIRGRPPRLPRPRPRPHNMPRP
shrunken log2 fold change: -0.285

RRIRGRPPRLPRPRPRPHRFPRP
shrunken log2 fold change: 0.101

RRIRGRPPRLPRPRPRPHRIPRP
shrunken log2 fold change: 0.00463

RRIRGRPPRLPRPRPRPHRKPRP
shrunken log2 fold change: 0.101

RRIRGRPPRLPRPRPRPHRPPRP
shrunken log2 fold change: -0.00248

RRIRGRPPRLPRPRPRPHRRPRP
shrunken log2 fold change: 0.205

RRIRGRPPRLPRPRPRPHSCPRP
shrunken log2 fold change: 0.153

RRIRGRPPRLPRPRPRPHSLPRP
shrunken log2 fold change: -0.0762

RRIRGRPPRLPRPRPRPHSRPRP
shrunken log2 fold change: 0.26

RRIRGRPPRLPRPRPRPHTEPRP
shrunken log2 fold change: -0.0408

RRIRGRPPRLPRPRPRPHTFPRP
shrunken log2 fold change: -0.0226

RRIRGRPPRLPRPRPRPHTYPRP
shrunken log2 fold change: -0.0875

RRIRGRPPRLPRPRPRPHYTPRP
shrunken log2 fold change: -0.379

RRIRGRPPRLPRPRPRPIAMPRP
shrunken log2 fold change: 0.401

RRIRGRPPRLPRPRPRPIAYPRP
shrunken log2 fold change: 0.117

RRIRGRPPRLPRPRPRPICDPRP
shrunken log2 fold change: 0.717

RRIRGRPPRLPRPRPRPICQPRP
shrunken log2 fold change: 0.655

RRIRGRPPRLPRPRPRPICSPRP
shrunken log2 fold change: 0.122

RRIRGRPPRLPRPRPRPIDMPRP
shrunken log2 fold change: -0.0207

RRIRGRPPRLPRPRPRPIDSPRP
shrunken log2 fold change: 0.00395

RRIRGRPPRLPRPRPRPIELPRP
shrunken log2 fold change: -0.0084

RRIRGRPPRLPRPRPRPIEMPRP
shrunken log2 fold change: 0.0736

RRIRGRPPRLPRPRPRPIENPRP
shrunken log2 fold change: 0.745

RRIRGRPPRLPRPRPRPIERPRP
shrunken log2 fold change: -0.00587

RRIRGRPPRLPRPRPRPIFMPRP
shrunken log2 fold change: 0.283

RRIRGRPPRLPRPRPRPIFTPRP
shrunken log2 fold change: 0.284

RRIRGRPPRLPRPRPRPIHQPRP
shrunken log2 fold change: -0.0704

RRIRGRPPRLPRPRPRPIIIPRP
shrunken log2 fold change: -0.167

RRIRGRPPRLPRPRPRPIIQPRP
shrunken log2 fold change: 0.203

RRIRGRPPRLPRPRPRPIIVPRP
shrunken log2 fold change: -0.043

RRIRGRPPRLPRPRPRPIKAPRP
shrunken log2 fold change: 0.024

RRIRGRPPRLPRPRPRPIKQPRP
shrunken log2 fold change: -0.0183

RRIRGRPPRLPRPRPRPILKPRP
shrunken log2 fold change: 0.316

RRIRGRPPRLPRPRPRPINRPRP
shrunken log2 fold change: -0.231

RRIRGRPPRLPRPRPRPIPGPRP
shrunken log2 fold change: 0.107

RRIRGRPPRLPRPRPRPIPHPRP
shrunken log2 fold change: 0.196

RRIRGRPPRLPRPRPRPIQMPRP
shrunken log2 fold change: -0.027

RRIRGRPPRLPRPRPRPIQPPRP
shrunken log2 fold change: 0.46

RRIRGRPPRLPRPRPRPIQVPRP
shrunken log2 fold change: 0.118

RRIRGRPPRLPRPRPRPIRIPRP
shrunken log2 fold change: 0.217

RRIRGRPPRLPRPRPRPISPPRP
shrunken log2 fold change: -0.0176

RRIRGRPPRLPRPRPRPITTPRP
shrunken log2 fold change: 0.407

RRIRGRPPRLPRPRPRPKCIPRP
shrunken log2 fold change: 0.0819

RRIRGRPPRLPRPRPRPKCQPRP
shrunken log2 fold change: 0.581

RRIRGRPPRLPRPRPRPKFTPRP
shrunken log2 fold change: 0.12

RRIRGRPPRLPRPRPRPKGPPRP
shrunken log2 fold change: 0.331

RRIRGRPPRLPRPRPRPKGVPRP
shrunken log2 fold change: 0.123

RRIRGRPPRLPRPRPRPKHMPRP
shrunken log2 fold change: 0.0797

RRIRGRPPRLPRPRPRPKIAPRP
shrunken log2 fold change: 0.386

RRIRGRPPRLPRPRPRPKKKPRP
shrunken log2 fold change: 0.354

RRIRGRPPRLPRPRPRPKLVPRP
shrunken log2 fold change: 0.326

RRIRGRPPRLPRPRPRPKMNPRP
shrunken log2 fold change: 0.407

RRIRGRPPRLPRPRPRPKMVPRP
shrunken log2 fold change: 0.79

RRIRGRPPRLPRPRPRPKNAPRP
shrunken log2 fold change: 1.91

RRIRGRPPRLPRPRPRPKPTPRP
shrunken log2 fold change: 0.527

RRIRGRPPRLPRPRPRPKPVPRP
shrunken log2 fold change: 0.985

RRIRGRPPRLPRPRPRPKSLPRP
shrunken log2 fold change: 0.413

RRIRGRPPRLPRPRPRPKTCPRP
shrunken log2 fold change: 0.206

RRIRGRPPRLPRPRPRPKTHPRP
shrunken log2 fold change: 0.947

RRIRGRPPRLPRPRPRPKYEPRP
shrunken log2 fold change: 0.56

RRIRGRPPRLPRPRPRPLAKPRP
shrunken log2 fold change: 1.29

RRIRGRPPRLPRPRPRPLDEPRP
shrunken log2 fold change: 1.24

RRIRGRPPRLPRPRPRPLDLPRP
shrunken log2 fold change: 0.717

RRIRGRPPRLPRPRPRPLDRPRP
shrunken log2 fold change: 0.732

RRIRGRPPRLPRPRPRPLFTPRP
shrunken log2 fold change: 0.572

RRIRGRPPRLPRPRPRPLHLPRP
shrunken log2 fold change: 0.0533

RRIRGRPPRLPRPRPRPLHSPRP
shrunken log2 fold change: 0.529

RRIRGRPPRLPRPRPRPLIKPRP
shrunken log2 fold change: 0.469

RRIRGRPPRLPRPRPRPLILPRP
shrunken log2 fold change: 0.203

RRIRGRPPRLPRPRPRPLLHPRP
shrunken log2 fold change: 0.762

RRIRGRPPRLPRPRPRPLLIPRP
shrunken log2 fold change: 0.61

RRIRGRPPRLPRPRPRPLLQPRP
shrunken log2 fold change: 0.486

RRIRGRPPRLPRPRPRPLMQPRP
shrunken log2 fold change: 0.605

RRIRGRPPRLPRPRPRPLREPRP
shrunken log2 fold change: 1.85

RRIRGRPPRLPRPRPRPLRPPRP
shrunken log2 fold change: 1.47

RRIRGRPPRLPRPRPRPLSAPRP
shrunken log2 fold change: 0.507

RRIRGRPPRLPRPRPRPLSRPRP
shrunken log2 fold change: 1.17

RRIRGRPPRLPRPRPRPLVKPRP
shrunken log2 fold change: 0.546

RRIRGRPPRLPRPRPRPLVWPRP
shrunken log2 fold change: 0.952

RRIRGRPPRLPRPRPRPLWAPRP
shrunken log2 fold change: 0.681

RRIRGRPPRLPRPRPRPMAHPRP
shrunken log2 fold change: 0.63

RRIRGRPPRLPRPRPRPMAYPRP
shrunken log2 fold change: 0.0863

RRIRGRPPRLPRPRPRPMDRPRP
shrunken log2 fold change: 0.156

RRIRGRPPRLPRPRPRPMDWPRP
shrunken log2 fold change: 0.929

RRIRGRPPRLPRPRPRPMGFPRP
shrunken log2 fold change: 0.315

RRIRGRPPRLPRPRPRPMGKPRP
shrunken log2 fold change: 0.375

RRIRGRPPRLPRPRPRPMGQPRP
shrunken log2 fold change: 0.651

RRIRGRPPRLPRPRPRPMHAPRP
shrunken log2 fold change: 1.66

RRIRGRPPRLPRPRPRPMHGPRP
shrunken log2 fold change: 0.36

RRIRGRPPRLPRPRPRPMHKPRP
shrunken log2 fold change: 0.866

RRIRGRPPRLPRPRPRPMICPRP
shrunken log2 fold change: 0.166

RRIRGRPPRLPRPRPRPMIFPRP
shrunken log2 fold change: 0.283

RRIRGRPPRLPRPRPRPMIHPRP
shrunken log2 fold change: -0.0642

RRIRGRPPRLPRPRPRPMIQPRP
shrunken log2 fold change: 0.522

RRIRGRPPRLPRPRPRPMIRPRP
shrunken log2 fold change: 0.147

RRIRGRPPRLPRPRPRPMKIPRP
shrunken log2 fold change: 0.533

RRIRGRPPRLPRPRPRPMLEPRP
shrunken log2 fold change: 0.778

RRIRGRPPRLPRPRPRPMLHPRP
shrunken log2 fold change: 0.526

RRIRGRPPRLPRPRPRPMNTPRP
shrunken log2 fold change: 0.632

RRIRGRPPRLPRPRPRPMNWPRP
shrunken log2 fold change: 0.179

RRIRGRPPRLPRPRPRPMREPRP
shrunken log2 fold change: -0.00527

RRIRGRPPRLPRPRPRPMSIPRP
shrunken log2 fold change: 0.0628

RRIRGRPPRLPRPRPRPMSWPRP
shrunken log2 fold change: 0.252

RRIRGRPPRLPRPRPRPMTTPRP
shrunken log2 fold change: 1.16

RRIRGRPPRLPRPRPRPMWAPRP
shrunken log2 fold change: 0.925

RRIRGRPPRLPRPRPRPMYMPRP
shrunken log2 fold change: -0.169

RRIRGRPPRLPRPRPRPNCPPRP
shrunken log2 fold change: -0.161

RRIRGRPPRLPRPRPRPNEFPRP
shrunken log2 fold change: 0.141

RRIRGRPPRLPRPRPRPNELPRP
shrunken log2 fold change: 0.552

RRIRGRPPRLPRPRPRPNFLPRP
shrunken log2 fold change: -0.0918

RRIRGRPPRLPRPRPRPNFNPRP
shrunken log2 fold change: 0.0556

RRIRGRPPRLPRPRPRPNFSPRP
shrunken log2 fold change: 0.078

RRIRGRPPRLPRPRPRPNFWPRP
shrunken log2 fold change: 0.544

RRIRGRPPRLPRPRPRPNGPPRP
shrunken log2 fold change: -0.0411

RRIRGRPPRLPRPRPRPNHSPRP
shrunken log2 fold change: 0.195

RRIRGRPPRLPRPRPRPNIVPRP
shrunken log2 fold change: 0.364
